Experimental data: patent publication US20250269025A1 (AVENCELL THERAPEUTICS, published 2025)
No end group written: not given here.

Tests used:
[1] = molecular target: T1, CD123 on CD123 positive AML cells (Oci-AML3, Molm-13, MV4-11, primary AML cells) (human, UniProt P26951 19-378); assay: cellular binding assay per table caption, Molm-13 cells; Molm-13 cells
T1 construct: whole, on cells; Endogenous CD123 on human AML cell lines; also called target antigen CD123

[2] = molecular target: T1, CD123 on CD123 positive AML cells …; assay: cellular binding assay per table caption, Oci-AML3 cells; Oci-AML3 cells
[3] = molecular target: T2, La epitope 5B9 (SEQ ID No. 28) fused to human Fc domain (human, also: fused to human Fc domain, order, isotype, linker not given here); assay: SPR, Biacore X100, La epitope 5B9-human Fc on CM5 chip; KD 5B9 (second number of the cell)
T2 construct: Coupled to a CM5 sensor chip; not shown: human Fc domain
T2 chain: KPLPEVTDEY
Protocol: Furthermore, binding of different variants of the targeting module according to the invention was analyzed using the La epitope 5B9 (SEQ ID No. 28) fused to human Fc domain which was coupled to a CM5 sensor chip on a Biacore X100 device (FIG. 3). The targeting modules were purified monomers. The targeting modules were concentrated between 2.47 to 200 nM and measured in technical duplicates. For data fitting and KD calculation a two-state-reaction binding model was applied.

[4] = molecular target: T3, human CD123-Fc (human, UniProt P26951 19-305, limits assumed); assay: SPR, Biacore X100, human CD123-Fc on CM5 chip, 1:1 model; KD CD123 (first number of the cell)
T3 construct: Coupled to a CM5 sensor chip; also called soluble recombinant CD123; not shown: Fc part
T3 sequence (looked up): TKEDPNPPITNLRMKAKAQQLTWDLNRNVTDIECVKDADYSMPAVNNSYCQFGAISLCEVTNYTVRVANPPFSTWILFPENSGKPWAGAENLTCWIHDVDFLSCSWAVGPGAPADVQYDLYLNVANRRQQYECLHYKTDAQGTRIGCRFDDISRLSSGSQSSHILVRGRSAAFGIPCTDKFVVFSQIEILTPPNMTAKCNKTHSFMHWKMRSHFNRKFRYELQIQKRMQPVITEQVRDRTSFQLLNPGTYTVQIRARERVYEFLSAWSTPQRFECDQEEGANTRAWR
Protocol: Binding of different variants of the targeting module according to the invention was analyzed by SPR measurements using human CD123-Fc coupled to a CM5 sensor chip on a Biacore X100 device (FIG. 2). Targeting modules were purified monomer except for the targeting module according to SEQ ID No. 8. […] For data fitting and KD calculation a 1:1 binding model was applied.

B1: targeting module according to SEQ ID No. 2 (reference) (bispecific antibody)
chain: EVQLQQSGPELVKPGASVKMSCKASGYTFTDYYMKWVKQSHGKSLEWIGDIIPSNGATFYNQKFKGKATLTVDRSSSTAYMHLNSLTSEDSAVYYCTRSHLLRASWFAYWGQGTLVTVSAASGGGGSGGGGSGGGGSDFVMTQSPSSLTVTAGEKVTMSCKSSQSLLNSGNQKNYLTWYLQKPGQPPKLLIYWASTRESGVPDRFTGSGSGTDFTLTISSVQAEDLAVYYCQNDYSYPYTFGGGTKLEIKAAARGQVQLVQSGAEVKKPGASVKVSCKASGYTFTHYYIYWVRQAPGQGLEWMGGVNPSNGGTHFNEKFKSRVTMTRDTSISTAYMELSRLRSDDTAVYYCARSEYDYGLGFAYWGQGTLVTVSSGGGGSGGGGSGGGGSDIVMTQSPDSLAVSLGERATINCKSSQSLLNSRTPKNYLAWYQQKPGQPPKLLIYWASTRKSGVPDRFSGSGSGTDFTLTISSLQAEDVAVYYCKQSYNLLTFGGGTKVEIKGPEQKLISEEDLNSAVDHHHHHH
notes: also called muCD123 + 5B9-VH-VL
- EC50 [1]: 0.0023 nM
- EC50 [2]: 0.0032 nM
- Kd [3]: 17 nM
- Kd [4]: 0.227 nM
